Paper PMC10887324, “Electrochemical Aptasensing Platform for the Detection of Retinol Binding Protein-4”

Assays:
[1] = target: T1, Retinol binding protein-4 (RBP-4) (UniProt P02753 19-201); test: EIS (electrochemical impedance, Langmuir linearization); same measurement as the Kd row; 2 mM MgCl2; 0.1 M PBS + 2 mM MgCl2, Fe(CN)6 3-/4- redox probe, aptamer on gold electrode with MCH; aptamer folded at 70 C 1 min then ice 10 min; immobilization at room temp
[2] = target: T1, Retinol binding protein-4 (RBP-4); test: EIS (electrochemical impedance, Langmuir linearization); folded aptamer, 0.1 uM in immobilization; 2 mM MgCl2; Fe(CN)6 3-/4- probe; 0.1 M PBS + 2 mM MgCl2, Fe(CN)6 3-/4- redox probe, aptamer on gold electrode with MCH; aptamer folded at 70 C 1 min then ice 10 min; immobilization at room temp

ACAGTAGTGAGGGGTCCGTCGTGGGGTAGTTGGGTCGTGG (ssDNA, 5'-thiol (-SH)) [Apt-RBP-4]
Ka [1]: 2e+07 M⁻¹ | Kd [2]: 0.05 µM
